Source: the nanobody polyreactivity screen of Harvey et al. (2022)

experiment: yeast display, Sf9 membrane polyspecificity reagent, FACS + sequencing; frameworks hold sequencing errors
In short: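 Polyreactivity labels are assigned by the sorting gate from which each nanobody was recovered. The gates were low and high (top ~1%), set on anti-HA fluorescence for expression and streptavidin fluorescence for reagent binding. Before sorting, galactose-induced (36–48 hours) yeast display cells were stained for 1 hour at 4 °C with 10% biotinylated, detergent-solubilized Sf9 membrane reagent.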

Sequence | polyreactivity (PSR sort gate)
QVQLVESGGGIVQAGGSLRLSCAASGRHFYTNAMGWYRQAPGKERELVATISGSVGNTYYEDSVKGRFTISRDNAKNTVYLQMNSLKPEDTAVYYCAKAYYTPYGVYVLHYYWGQGTQVTVSS | high polyreactivity
QVQLVESGGGIVQAGGSLRLSCAASGRIFKWNAMGWYRQAPGKERELVAAISTSRGNTYYADSVKGRFTSSRDYAKNTVYLLMNSLKPEDTAGYYCAATYPISLRQVGYWGQATQVTVSS | high polyreactivity
QVQLVESGGGIVQAGGSLRLSCAASGRIFLSYAMGWYRQAPGKERELVAAISRNGGSTYYADSVKGRFTISRDNGKNTVYLPMNSLKPEDTAVYYCAAGGDYWGQGTQVTVSS | high polyreactivity
QVQLVESGGGIVQAGGSLRLSCAASGRIFSFNTMVSYRQAPRKERELVAAITSSSARTYYADSVKGRFTISRDNAKNTVYLQMNSLKPEDTAVYYCATRDWVGSVRMGYWGQGTQVTVSS | high polyreactivity
QVQLVESGGGIVQAGGSLRLSCAASGRIFSGNGMGWYRQAPGKEREFVAAIRFSSGSTYYADSVKGRFTISRDNAKNTVYLQMNSLKPEDTAVYYCARPSIPSRYDYWGQGTQVTVSS | high polyreactivity
QVQLVESGGGIVQAGGSLRLSCAASGRIFVRYAMGWYRQAPGKERELVAAISKSGGSTYYADSVKGRFTISRENAKNTVYLQMYSLKPEDTAVYYCNALVRRRPGYIRYDYWGQGTQVTVSS | low polyreactivity
QVQLVESGGGIVQAGGSLRLSCAASGRIFYRYDMGWYSQARGKERELVAAINDGGSTYYADSVKGRFTISRDNAKNTVYLQMNSLKPEDTAVYYCKVVNEHQSDFVVPFDYNHWGQGTQVTVSS | low polyreactivity
QVQLVESGGGIVQAGGSLRLSCAASGRIFYSYAMGWYRQAPGKERELVATISSGGSTNYADSVKGRFTISRDNAKNTVYLQMNSLKPEDTAVYYCGRQSLRYSYVSRDYWGQGSQVTVSS | low polyreactivity
QVQLVESGGGIVQAGGSLRLSCAASGRIIRYYAMGWYRQAPGKERELVAAITRGGSTNYADSVKGRFTISRDNAKNTVYLLMNSLKPEDTAVYYCATRQSWYPRWMDYWGQGTQVTVSS | high polyreactivity
QVQLVESGGGIVQAGGSLRLSCAASGRIIVNYAMGWYRQAPGKERELVAAISYSGGGTYYADSVKGRFTISRDNAKNTVYLHMNSLKPEDTAVYYCATVRRDDRYNYWGQGNQVTVSS | low polyreactivity
QVQLVESGGGIVQAGGSLRLSCAASGRTFAGNAMGWYRQAPGKERELVAAISQGGGSTYYADSVKGRFTISRDNAKNTVYLQMNSLKPEDTAVYYCAAEIPRRWASFATLWYDYWGQGTQVTVSS | low polyreactivity
QVQLVESGGGIVQAGGSLRLSCAASGRTFKRYAMGWYRPAPGKERELVAAITRSGGSTYYADSVKGRFTISRDNAKNTVYLQMNSLKPEDTAVYYCATRSYNNELEYWGQGTQVTVSS | high polyreactivity
QVQLVESGGGIVQAGGSLRLSCAASGRTFKYYAMGWYRQAPGKERELVAAITSTGGSTYYADSVKGRFTISRDNAKNTVYLQMNSLKPEDTAVYYCNRYTQYRDRSDNHWGQGTQVTVSS | high polyreactivity
QVQLVESGGGIVQAGGSLRLSCAASGRTFQFYAMGWYRQEPGKERELVASITWSPVRTYYADSVKGRFTNSRDNAKNTVYLQMNSLKQEDTAVYSCAIDWDYRLMDYWGQGTQVTVSS | low polyreactivity
QVQLVESGGGIVQAGGSLRLSCAASGRTFRGNAMGWYRQAPGKERELVAAIRYRGGSTYYADSVKGRFTISRDNAKNTVYLQMNSLKPEDTAVYDCARRYTVHTQHYDYWGQGTEVTVSS | high polyreactivity
QVQLVESGGGIVQAGGSLRLSCAASGRTFRWNVMGCYRPAPGKERELVATISRRSGSTNYADSVKGRFTISRDNAKNTVYLQINSLKPEDTALYYCAVVIVRALVYSGDYWGQGTQVSVSS | low polyreactivity
QVQLVESGGGIVQAGGSLRLSCAASGRTLPEYAMGWYIQEPGKERELVAAITSSSGSTYYADSVKVRFTISRDNAKNTVYLQMNSLIPEDTAVYYCAAESESGYHDYDYWGQGTQVTVSS | low polyreactivity
QVQLVESGGGIVQAGGSLRLSCAASGRTYYYYAMGWYRQAPGKETELVASISWSGGSTYYADSVKGRFTISRDNAKNTVYLQMNSLKPEDTAVYYCNAQYHTYRWLYAVYLSGDYWGQGTQVTVSS | low polyreactivity
QVQLVESGGGIVQAGGSLRLSCAASGRVFTYYAMGWYRQAPGKERELVAAISSGGNTYYADSVKGRFTISRDNAKNTVFLQMNSLKPEDTAVYYCAAAGRPRYESNYWGQGTQVSVSS | high polyreactivity
QVQLVESGGGIVQAGGSLRLSCAASGSIFEPNAMGWYRQAPGQEREFVAAISGSGGSTYYADSVKGRFTSSRDNAKNTVYLQRNSLKPEDTAVYYCNALYLRTTPQDYDYWGQGTQVTVSS | high polyreactivity
QVQLVESGGGIVQAGGSLRLSCAASGSIFGANAMVWYRQAPGKERELVAAISRRGGSTYYADSVKGRFTISRDNAKNTVYLQMNSLKPEDSAVYYCNTYPQSLGVKYGYWGQGTQVTVSS | high polyreactivity
QVQLVESGGGIVQAGGSLRLSCAASGSIFGVYAMGWYRQAPGKERELVAAISSSGGRTYYADSVKGRFTISRDNAKNTVYLQMISLKPEDTAVYYCAAVPWRRSTRYDYWGQGTLVTVSS | high polyreactivity
QVQLVESGGGIVQAGGSLRLSCAASGSIFSKYAMGWYRQAPGKERELVATISSSVGSTYYADSVKGRFTISRDNAKNTVYLQMNSLKPEDTAVYYCAARPDYEYGSHYRGGYWGQGTQVSVSS | low polyreactivity
QVQLVESGGGIVQAGGSLRLSCAASGSIFSYNAMVWSRQAPGKQREFVAAIDGSDGSTYYADSVKGRFTISRDNAKNTVYLQMYSLKPEDTAVYSCAATDYDTYRSSWYDYWGQGTQVTVSS | low polyreactivity
QVQLVESGGGIVQAGGSLRLSCAASGSIFTGYAMGWYRQAPGKERQLVAAISWRGGGTYYADSVKGRFTISRDNAKNTVYLQMNSLKPEDTAVYYCAAVTKFGQYAPGSKGYGYWGQGTQVTVSS | low polyreactivity
QVQLVESGGGIVQAGGSLRLSCAASGSIFWVNVMGWYRQAPGKEREFVAAITRSGGSTYYADSVKGRFTISRDNAKNTVYLQMKSLKPEDTAVYYCNRRGRRGYDYWGQGTQVTVSS | high polyreactivity
QVQLVESGGGIVQAGGSLRLSCAASGSIFYHNAMGWYRQAPGKERELVAAITGSGGSTYYADSVKGRFTISRDNAKNTVYLQMNSLKPEDTAVYYCAADGYTKWWISWGYDYWGQGTQVTVSS | low polyreactivity
QVQLVESGGGIVQAGGSLRLSCAASGSSFWRNTMGWYRQAPGKERELVAGISSTGTSTYYADSVKGRFTISRDNAKNTVYLQMNSLKPEDTAVYYCAAAYRNRKYDYWGQGTQVTVSS | high polyreactivity
QVQLVESGGGIVQAGGSLRLSCAASGSTFFSNTMGWYRQAPGKERELVAAITSRGGRTYYADSVKGRFTISRDNAKNTVYLQMNSLKPEDSAVYYCADRFVLHGVYLKFYWGQGTQVTVSS | high polyreactivity
QVQLVESGGGIVQAGGSLRLSCAASGSTFGAYPMAWYRQAPGTERELVAVITRTGSTYADSVKGRFTISRDNAKNTVYLQMNSLKPVDTAVYYCNADYYVSRLYDYQVYSYRYDYWGQGTKVTVSS | high polyreactivity
